Experimental data taken from publication PMC6856373, “The first comprehensive phylogenetic and biochemical analysis of NADH diphosphatases reveals that the enzyme from Tuber melanosporum is highly active towards NAD^+” (Scientific Reports, 2019).

Assays:
[1] = substrate: NC(=O)c1ccc[n+]([C@@H]2O[C@H](COP(=O)(O)OP(=O)(O)OC[C@H]3O[C@@H](n4cnc5c(N)ncnc54)[C@H](O)[C@@H]3O)[C@@H](O)[C@H]2O)c1; test: HPLC of AMP formation, initial rates, Michaelis-Menten fit; format: biochemical, Tuber melanosporum; details: 50 mM Tris-HCl pH 8.0, 37 °C, 0.5 mM MnCl2
Excerpt: (§1) HPLC of AMP formation, initial rates, Michaelis-Menten fit on […]

[2] = substrate: NC(=O)C1=CN([C@@H]2O[C@H](COP(=O)(O)OP(=O)(O)OC[C@H]3O[C@@H](n4cnc5c(N)ncnc54)[C@H](O)[C@@H]3O)[C@@H](O)[C@H]2O)C=CC1; test: as above; format: biochemical, Tuber melanosporum; details: 50 mM Tris-HCl pH 8.0, 37 °C, 0.5 mM MnCl2
Excerpt: as §1

B1: TmNADD (Tuber melanosporum Mel28) (protein)
chain: MTQPYTATTESHKTSMLSRKFGQEIINYFSGSPLNRVSFLRSSTAFLRAALPRSKFLLMRDLEPLAASKTTLAWVGYETVRELVGNPFDTEEEEFLRGYDSRVEIPTLVFLGMNEEGTGGGGGGESFEFEGEGGKYVGGPCFALDVTEKGSLKEECEKVQEEAVKGAEGREFRKVRLDLSLVPSDAAILAQARSLLDWNNRNQFCSACGARTVSVHAGTKRICPPSDKAFQKDPEGPPFERPPCISRKGIHNIAFPRTDPTVIMAIINSTGDKVLLGRQRRWPKDFYSTLAGFCEPAESVEDAVRRETWEESGVRVGRVVIHSTQPWPYPANLMMGAIGEALPGGEEIVLKHDPELEDAQWVEVGRVRNALQESTGTPDVEVEGAIEGQLRLPPSTAIAHQLLLAVVNGFHLAKL
[1]
  Km: 310 ± 50 µM
  kcat: 2.9 ± 0.2 s⁻¹
  kcat/Km: 9300 ± 1600 M⁻¹ s⁻¹
[2]
  Km: 120 ± 10 µM
  kcat: 10.7 ± 1.8 s⁻¹
  kcat/Km: 89200 ± 19800 M⁻¹ s⁻¹
